For four molecules, Kd results are on record in article PMC9408373 (2022).

By Kd is commonly meant the concentration at which binding is half-saturated. Lower therefore signals a tighter complex.

Assay [1] addresses T1, human CDC42 (aa 1-178), wild type (human, UniProt P60953 1-178). Nature of the assay: FP; mGDP-bound CDC42.
Assay [2] deals with T1, human CDC42 (aa 1-178), wild type. In words: FP; mGppNHp-bound CDC42.

T1 sequence (P60953 1-178): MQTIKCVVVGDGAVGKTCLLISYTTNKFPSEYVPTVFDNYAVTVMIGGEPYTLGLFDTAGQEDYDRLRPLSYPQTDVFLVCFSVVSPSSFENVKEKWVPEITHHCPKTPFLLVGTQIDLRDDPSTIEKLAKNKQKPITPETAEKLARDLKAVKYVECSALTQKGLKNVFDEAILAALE

B1: human IQGAP2 GRD2 (aa 875-1246) (domain or fragment)
chain: SKERRKTLETYQQLFYLLQTNPLYLAKLIFQMPQNKSTKFMDTVIFTLYNYASNQREEYLLLKLFKTALEEEIKSKVDQVQDIVTGNPTVIKMVVSFNRGARGQNTLRQLLAPVVKEIIDDKSLIINTNPVEVYKAWVNQLETQTGEASKLPYDVTTEQALTYPEVKNKLEASIENLRRVTDKVLNSIISSLDLLPYGLRYIAKVLKNSIHEKFPDATEDELLKIVGNLLYYRYMNPAIVAPDGFDIIDMTAGGQINSDQRRNLGSVAKVLQHAASNKLFEGENEHLSSMNNYLSETYQEFRKYFKEACNVPEPEEKFNMDKYTDLVTVSKPVIYISIEEIISTHSLLLEHQDAIAPEKNDLLSELLGSLGE
B1 gave a Kd in assay [1] of 55 µM.

B2: human IQGAP1 C794 (aa 863-1657) (domain or fragment)
chain: DPPMVVVRKFVHLLDQSDQDFQEELDLMKMREEVITLIRSNQQLENDLNLMDIKIGLLVKNKITLQDVVSHSKKLTKKNKEQLSDMMMINKQKGGLKALSKEKREKLEAYQHLFYLLQTNPTYLAKLIFQMPQNKSTKFMDSVIFTLYNYASNQREEYLLLRLFKTALQEEIKSKVDQIQEIVTGNPTVIKMVVSFNRGARGQNALRQILAPVVKEIMDDKSLNIKTDPVDIYKSWVNQMESQTGEASKLPYDVTPEQALAHEEVKTRLDSSIRNMRAVTDKFLSAIVSSVDKIPYGMRFIAKVLKDSLHEKFPDAGEDELLKIIGNLLYYRYMNPAIVAPDAFDIIDLSAGGQLTTDQRRNLGSIAKMLQHAASNKMFLGDNAHLSIINEYLSQSYQKFRRFFQTACDVPELQDKFNVDEYSDLVTLTKPVIYISIGEIINTHTLLLDHQDAIAPEHNDPIHELLDDLGEVPTIESLIGESSGNLNDPNKEALAKTEVSLTLTNKFDVPGDENAEMDARTILLNTKRLIVDVIRFQPGETLTEILETPATSEQEAEHQRAMQRRAIRDAKTPDKMKKSKSVKEDSNLTLQEKKEKIQTGLKKLTELGTVDPKNKYQELINDIARDIRNQRRYRQRRKAELVKLQQTYAALNSKATFYGEQVDYYKSYIKTCLDNLASKGKVSKKPREMKGKKSKKISLKYTAARLHEKGVLLEIEDLQVNQFKNVIFEISPTEEVGDFEVKAKFMGVQMETFMLHYQDLLQLQYEGVAVMKLFDRAKVNVNLLIFLLNKKFYGK
Molecule B2 registered a Kd in assay [1] of 64 µM.

B3: human IQGAP1 GRD1 (aa 962-1345) (domain or fragment)
chain: SKEKREKLEAYQHLFYLLQTNPTYLAKLIFQMPQNKSTKFMDSVIFTLYNYASNQREEYLLLRLFKTALQEEIKSKVDQIQEIVTGNPTVIKMVVSFNRGARGQNALRQILAPVVKEIMDDKSLNIKTDPVDIYKSWVNQMESQTGEASKLPYDVTPEQALAHEEVKTRLDSSIRNMRAVTDKFLSAIVSSVDKIPYGMRFIAKVLKDSLHEKFPDAGEDELLKIIGNLLYYRYMNPAIVAPDAFDIIDLSAGGQLTTDQRRNLGSIAKMLQHAASNKMFLGDNAHLSIINEYLSQSYQKFRRFFQTACDVPELQDKFNVDEYSDLVTLTKPVIYISIGEIINTHTLLLDHQDAIAPEHNDPIHELLDDLGEVPTIESLIGESS
For B3, the Kd in assay [1] was 150 µM; in assay [2] it was 152 µM.

B4: human IQGAP2 C795 (aa 780-1575) (domain or fragment)
chain: PLTVIRKFVYLLDQSDLDFQEELEVARLREEVVTKIRANQQLEKDLNLMDIKIGLLVKNRITLEDVISHSKKLNKKKGGEMEILNNTDNQGIKSLSKERRKTLETYQQLFYLLQTNPLYLAKLIFQMPQNKSTKFMDTVIFTLYNYASNQREEYLLLKLFKTALEEEIKSKVDQVQDIVTGNPTVIKMVVSFNRGARGQNTLRQLLAPVVKEIIDDKSLIINTNPVEVYKAWVNQLETQTGEASKLPYDVTTEQALTYPEVKNKLEASIENLRRVTDKVLNSIISSLDLLPYGLRYIAKVLKNSIHEKFPDATEDELLKIVGNLLYYRYMNPAIVAPDGFDIIDMTAGGQINSDQRRNLGSVAKVLQHAASNKLFEGENEHLSSMNNYLSETYQEFRKYFKEACNVPEPEEKFNMDKYTDLVTVSKPVIYISIEEIISTHSLLLEHQDAIAPEKNDLLSELLGSLGEVPTVESFLGEGAVDPNDPNKANTLSQLSKTEISLVLTSKYDIEDGEAIDSRSLMIKTKKLIIDVIRNQPGNTLTEILETPATAQQEVDHATDMVSRAMIDSRTPEEMKHSQSMIEDAQLPLEQKKRKIQRNLRTLEQTGHVSSENKYQDILNEIAKDIRNQRIYRKLRKAELAKLQQTLNALNKKAAFYEEQINYYDTYIKTCLDNLKRKNTRRSIKLDGKGEPKGAKRAKPVKYTAAKLHEKGVLLDIDDLQTNQFKNVTFDIIATEDVGIFDVRSKFLGVEMEKVQLNIQDLLQMQYEGVAVMKMFDKVKVNVNLLIYLLNKKFYGK
The molecule B4 returned a Kd in assay [1] of 113 µM.
